Reference: US6982321

Legend:
[1] = biological target: partially purified Campath-1 antigen (obtained from a glycolipid extract from human spleen) (human) (UniProt P31358); test: direct binding assay on coated partially purified Campath-1 antigen, biotin anti-rat IgG2b detection; concentration at 50% maximal binding
[2] = biological target: Campath-1 antigen on human lymphocytes (human) (UniProt P31358); test: cell-based or functional assay
[3] = biological target: hen eggwhite lysozyme (hen) (UniProt P00698); test: fluorescence quenching titration with hen eggwhite lysozyme
hen eggwhite lysozyme (hen), sequence (P00698 19-147 limits assumed): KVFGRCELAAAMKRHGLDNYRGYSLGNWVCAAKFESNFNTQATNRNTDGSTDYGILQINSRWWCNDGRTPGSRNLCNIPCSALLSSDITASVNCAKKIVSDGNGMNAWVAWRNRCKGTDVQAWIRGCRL

[4] = biological target: partially purified Campath-1 antigen (obtained from a glycolipid extract from human spleen) (human) (UniProt P31358); test: direct binding assay on coated partially purified Campath-1 antigen; concentration at 50% binding
[5] = biological target: hen eggwhite lysozyme (hen) (UniProt P00698); test: fluorescence titration with lysozyme, 50 nM antibody, 25°

RaVHCAMP-RaIgG2B, sequence (P20761 whole entry): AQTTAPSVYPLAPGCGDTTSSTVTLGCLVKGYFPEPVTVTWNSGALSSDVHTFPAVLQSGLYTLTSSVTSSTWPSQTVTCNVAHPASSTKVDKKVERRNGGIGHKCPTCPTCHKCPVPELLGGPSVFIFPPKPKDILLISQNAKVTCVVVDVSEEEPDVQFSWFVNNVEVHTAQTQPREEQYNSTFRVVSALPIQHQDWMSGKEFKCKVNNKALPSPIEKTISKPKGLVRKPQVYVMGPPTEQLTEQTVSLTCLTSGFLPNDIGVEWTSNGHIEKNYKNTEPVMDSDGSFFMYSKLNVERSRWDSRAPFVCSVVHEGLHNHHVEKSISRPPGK
HuVHCAMP(Ser27 to Phe)-RaIgG2B, sequence (P20761 whole entry): as above
HuVHCAMP(Ser27 to Phe, Ser30 to Thr)-RaIgG2B, sequence (P20761 whole entry): as above
HuVHCAMP-RaIgG2B, sequence (P20761 whole entry): as above

| Substance | EC50 [1] [µg/mL] | Concentration of antibody in ug/ml at 50% binding or lysis: complement lysis [2] [µg/mL] | Kd [3] [nM] | further results |
| --- | --- | --- | --- | --- |
| HuVHCAMP(Ser27 to Phe, Ser30 to Thr)-RaIgG2B (from UniProt P20761 1-333) (antibody) | 2 | 17.6 |  |  |
| D1.3 (H2K2) (reassociated) (antibody) |  |  | 11.4 |  |
| HuVHCAMP(Ser27 to Phe)-RaIgG2B (from UniProt P20761 1-333) (antibody) | 1.8 | 16.3 |  |  |
| RaVHCAMP-RaIgG2B (from UniProt P20761 1-333) (antibody) | 0.7 | 2.1 |  | EC50 [4]: 1.01 µg/mL |
| D1.3 (H2K2) (antibody) |  |  | 14.4 | equivalence point (binding sites per mole) (binding sites per mole) [5]: 1.8 |

Now from value to substance, other results behind:

| EC50 [1] [µg/mL] | Concentration of antibody in ug/ml at 50% binding or lysis: complement lysis [2] [µg/mL] | Kd [3] [nM] | Substance | further results |
| --- | --- | --- | --- | --- |
|  |  | 9.2 | recombinant D1.3 (H*2K2) (reassociated) (antibody) |  |
| 27.3 |  |  | HuVHCAMP-RaIgG2B (from UniProt P20761 1-333) (antibody) |  |
